Literature values, collected in US10076577B2, “Compositions and methods for treating endocrine, gastrointestinal or autoimmune disorders” (priority 2010, dated 2018).

Conditions: in vivo

Substance: Glucagon-like peptide-1 [GLP-1]
- half-life in the blood: a few minutes
